One assay deals with human CD40 (human) (UniProt P25942). Put plainly: Biacore. A general note: In SPR one partner is held on a chip, and binding of the other changes the refractive index at the surface.
Another assay concerns the target T1, soluble CD40 (Homo sapiens (Human), UniProt P25942 20-193).
T1 construct: Soluble CD40 as used in ELISA-type assays; the real soluble form is shorter
Put plainly: ELISA-type assays. Background: ELISA stands for enzyme-linked immunosorbent assay.

T1 sequence (P25942 20-193): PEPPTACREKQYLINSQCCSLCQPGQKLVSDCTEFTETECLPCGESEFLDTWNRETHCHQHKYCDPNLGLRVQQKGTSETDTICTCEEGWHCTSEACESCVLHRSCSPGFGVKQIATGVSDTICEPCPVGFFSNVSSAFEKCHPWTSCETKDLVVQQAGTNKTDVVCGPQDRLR

B1: monoclonal antibody HCD122 (antibody, human IgG1, kappa, V domains shown)
VH: QVQLVESGGGVVQPGRSLRLSCAASGFTFSSYGMHWVRQAPGKGLEWVAVISYEESNRYHADSVKGRFTISRDNSKITLYLQMNSLRTEDTAVYYCARDGGIAAPGPDYWGQGTLVTVSS
VL: DIVMTQSPLSLTVTPGEPASISCRSSQSLLYSNGYNYLDWYLQKPGQSPQVLISLGSNRASGVPDRFSGSGSGTDFTLKISRVEAEDVGVYYCMQARQTPFTFGPGTKVDIRR
notes: Fully human IgG1 kappa anti-CD40 monoclonal antibody from the hybridoma deposited as ATCC PTA-5543; also called CHIR-12.12
The Kd is the constant that tells how readily two partners part at equilibrium. As to B1, in the assay with human CD40 (human), the Kd came out at 0.5 nM. The binding result with soluble CD40 is “binds”.

Source of the values: patent WO2012075111A1 (dated 2012).
